Consider two molecules from US5705154, “Humanized monoclonal antibodies against human interleukin-4” (Schering Corporation, dated 1998).

Values joined by “and” are separate entries in the source; they are usually repeats but may differ in a detail not shown here. Equal values may be shown once.

The target of assay [1] is T1, human interleukin-4 (human, UniProt P05112, radioiodinated (125I, IODOGEN method) in the binding and competition assays; unlabelled in the reporter gene assay). Briefly: apparent Kd, Scatchard analysis; antibody from COS conditioned medium captured on anti-human IgG4 Fc plates, 125I-hIL-4, room temperature. The protocol: The wells were washed and incubated with ^125I-hIL-4 at concentrations between 4,000 and 2 pM in final volumes of 100 μl. All assays were performed in triplicate, and the background binding was determined by using a 1000-fold molar excess of unlabelled hIL4 in control wells. After incubation for 2 hours at room temperature, the wells were washed, the protein was solubilized in 75 μl of Solubilization buffer [0.1N NaOH/1% sodium dodecylsulfate (SDS)], and the solution was counted in an LKB gamma counter. Concentrations of bound and free hIL4 were determined, and the affinities of the antibodies were determined by Scatchard plot analysis [Berzofsky et al., in *Fundamental Immunology*, 1984, Paul, E. E., Ed., Raven Press, N.Y., N.Y., pp. 595–644].
All five variants of the humanized heavy chain gene were independently co-transfected into COS 7 cells with the pKM20 light chain vector. The serum-free conditioned medium was harvested after 72 hours and concentrated.

Assay [2] addresses T1, human interleukin-4. Briefly: inhibition of 125I-hIL-4 binding to the human IL-4 receptor on Jijoye CJ cells, 4 C. The procedure:
The humanized antibodies were assayed for the ability to inhibit the binding of radiolabelled hIL-4 to the recombinant human IL-4 receptor expressed on Jijoye CJ cells in microtiter plates. Briefly, the humanized antibodies were serially diluted in cell growth medium at protein concentrations of from 8.6 nM to 4 pM. Rat antibody 25D2 was similarly diluted and used as a positive control. Jijoye CJ cells (10^5 cells) and 44 pM ^125I-hIL-4 were then added to each well (200 μl final volume per well) and the plates were incubated for 2 hours at 4° C.
Humanized antibodies h25D2-1 and h25D2-4 antibodies were assayed as described above for the ability to inhibit binding of radiolabeled hIL-4 to recombinant hIL-4 receptors expressed on the Jijoye CJ cell line.

For assay [3], the target named is T1, human interleukin-4.
In assay [4] the target is T1, human interleukin-4. The experiment in a line: plate competition assay at room temperature; free antibody against immobilized 25D2 as competitor for 125I-hIL-4. The protocol:
(§1) Immunosorb plates were coated with a 60 ng/ml solution of the rat 25D2 antibody diluted in PBS (100 μl/well) for at least 16 hours at 4° C. The wells were then blocked with Blocking buffer (3% BSA in PBS) for 4 hours at room temperature. Fifty microliters of 2-fold serially diluted competing antibodies plus the appropriate amount of ^125I-hIL-4 ([…] total volume) were added to each well, and the plates were incubated at room temperature for 16–24 hours. The plates were washed 3 times with potassium phosphate, pH 7.4, plus 0.05% Tween 20. The wells were aspirated dry, and 75 μl of Solubilization buffer (0.1N NaOH/1% SDS) was added to each well and incubated for 30 minutes at room temperature. The solution was removed from each well and counted in an LKB gamma counter.
To further characterize humanized antibody variants h25D2-1 and h25D2-4, competitive binding assays with the humanized antibodies and rat antibody 25D2 were performed as described above.

Assay [5] addresses T1, human interleukin-4. The experiment in a line: plate competition assay at room temperature (about 22 C); free antibody against immobilized 25D2 as competitor for 125I-hIL-4. The protocol: as §1
A plate competition assay was carried out as described above using ^125I-hIL-4, immobilized rat antibody 25D2, and varying levels of free antibodies 25D2, h25D2-1 or h25D2-9.

The target in assay [6] is T1, human interleukin-4. This is another data set of the same source.
The target in assay [7] is T1, human interleukin-4. The experiment in a line: apparent Kd, Scatchard analysis; purified antibody captured on anti-rat IgG Fc plates, 125I-hIL-4, room temperature.

B1: humanized antibody h25D2-1 (antibody, V domains shown)
VH: EVQLLESGGGLVQPGGSLRLSCAASGFSFRSYWMTWVRQAPGKGLEWVASISISGDNTYYPDSVRGRFTISRNDSKNTLYLQMNGLQAEVSAIYYCARDPYYFSGHYFDFWGQGTLVTVSS
VL: DIQMTQSPSSLSVSVGDRVTITCKASQNIYKNLAWYQQKPGLAPKLLIYNAKSLETGVPSRFSGSGSGTDFTFTISSLQPEDIATYYCQQYYSGWTFGQGTKVEVKR
For the molecule B1, the Kd with human interleukin-4 [1] is 4 nM. Also, the half-inhibitory concentration (IC50) with human interleukin-4 [2] was 0.5 nM and 1 nM. Further, the concentration for fifty percent inhibition in the germline epsilon reporter assay, Jijoye C12 cells (FIG. 3), against 25D2 and h25D2-9 in the assay with human interleukin-4 [3] turned out to be 5 fold. In the assay with human interleukin-4 [4], the “fold less effective than antibody 25D2 in competition” value was determined as 3 fold. Besides, in the assay with human interleukin-4 [5], the “concentration for fifty percent inhibition relative to antibody h25D2-9” value is 2 fold. In the assay with human interleukin-4 [6], this molecule gave an IC50, inhibition of human growth hormone expression under the germline epsilon promoter in Jijoye C12 cells with 1 ng/mL hIL-4 of 120 pM.

B2: rat monoclonal antibody 25D2 (antibody, V domains shown)
VH: ELQLVESGGGLVQPGRSLKLSCVASGFSFRSYWMTWVRQAPGKGLEWIASISISGDNTYYPDSVRGRFTISRDDAKSILYLQMNSLRSEDTATYYCVRDPYYFSGHYFDFWGQGVMVTVSS
VL: DIQMTQSPSLLSASVGDRVTLNCKASQNIYKNLAWYQQKLGEAPKFLIFNAKSLETGVPSRFSGSGSGTDFTLTISSLQPEDVATYFCQQYYSGWTFGGGTKLELKR
Regarding B2, the IC50 with human interleukin-4 [2] was 0.5 to 1 nM and 1 nM. The Kd with human interleukin-4 [7] is 1 nM. The molecule further came in with an IC50, inhibition of human growth hormone expression under the germline epsilon promoter in Jijoye C12 cells with 1 ng/mL hIL-4 with human interleukin-4 [6] of 20 to 40 pM.

One may read the IC50 as the concentration that gives 50% inhibition. High values mean weaker potency, low ones greater potency.
